The record followed here is patent publication US20130064833A1.

The target in the assay is hepatocyte growth factor receptor (HGFR) (UniProt P08581). The assay is described as follows: cell-based or functional assay.
Sequence of UniProt P08581 (P08581 25-1390 limits assumed): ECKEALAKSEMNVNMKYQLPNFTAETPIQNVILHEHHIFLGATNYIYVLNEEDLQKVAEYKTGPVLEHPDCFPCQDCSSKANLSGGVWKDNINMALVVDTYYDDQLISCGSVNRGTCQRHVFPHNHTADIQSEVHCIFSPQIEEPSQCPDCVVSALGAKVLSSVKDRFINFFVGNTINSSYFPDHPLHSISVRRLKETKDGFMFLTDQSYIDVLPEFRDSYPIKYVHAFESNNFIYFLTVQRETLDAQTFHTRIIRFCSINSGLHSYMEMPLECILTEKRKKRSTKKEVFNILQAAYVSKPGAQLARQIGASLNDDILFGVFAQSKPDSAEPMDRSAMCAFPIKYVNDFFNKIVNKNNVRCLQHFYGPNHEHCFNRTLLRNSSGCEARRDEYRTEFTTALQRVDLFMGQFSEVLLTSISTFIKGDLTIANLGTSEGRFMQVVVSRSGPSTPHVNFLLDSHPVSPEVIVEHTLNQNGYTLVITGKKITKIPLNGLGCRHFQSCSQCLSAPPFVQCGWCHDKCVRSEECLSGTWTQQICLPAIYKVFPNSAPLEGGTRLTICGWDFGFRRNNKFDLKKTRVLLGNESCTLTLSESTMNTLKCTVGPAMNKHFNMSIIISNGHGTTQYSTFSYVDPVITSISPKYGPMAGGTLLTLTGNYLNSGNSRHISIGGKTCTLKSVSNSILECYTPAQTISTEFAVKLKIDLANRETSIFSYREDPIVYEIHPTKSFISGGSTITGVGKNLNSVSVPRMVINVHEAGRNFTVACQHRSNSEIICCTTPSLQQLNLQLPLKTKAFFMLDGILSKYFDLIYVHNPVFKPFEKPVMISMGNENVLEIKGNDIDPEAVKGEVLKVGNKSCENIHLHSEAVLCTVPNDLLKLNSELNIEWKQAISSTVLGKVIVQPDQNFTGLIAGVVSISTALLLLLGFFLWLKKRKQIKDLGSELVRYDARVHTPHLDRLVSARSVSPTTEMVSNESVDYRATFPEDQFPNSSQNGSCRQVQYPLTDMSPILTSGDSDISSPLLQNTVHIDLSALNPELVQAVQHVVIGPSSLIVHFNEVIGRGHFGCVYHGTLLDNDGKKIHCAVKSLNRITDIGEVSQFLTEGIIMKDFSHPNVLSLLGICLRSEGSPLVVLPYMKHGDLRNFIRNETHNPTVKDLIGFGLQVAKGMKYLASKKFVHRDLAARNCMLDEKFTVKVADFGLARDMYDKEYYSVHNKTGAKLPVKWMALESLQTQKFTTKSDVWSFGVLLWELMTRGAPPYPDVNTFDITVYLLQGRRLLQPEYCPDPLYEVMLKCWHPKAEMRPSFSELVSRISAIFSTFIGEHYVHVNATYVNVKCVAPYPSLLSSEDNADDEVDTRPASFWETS

Consider hepatocyte growth factor (HGF) (ligand), for which the LEC proliferation, minimal effective concentration was determined as 1 ng/mL.
